Experimental data: IntAct's records for PubMed 21516123

B1: Peroxiredoxin-1 (Mus musculus), P35700 (parent)
chain: MSSGNAKIGYPAPNFKATAVMPDGQFKDISLSEYKGKYVVFFFYPLDFTFVCPTEIIAFSDRADEFKKLNCQVIGASVDSHFCHLAWINTPKKQGGLGPMNIPLISDPKRTIAQDYGVLKADEGISFRGLFIIDDKGILRQITINDLPVGRSVDEIIRLVQAFQFTDKHGEVCPAGWKPGSDTIKPDVNKSKEYFSKQK
partner: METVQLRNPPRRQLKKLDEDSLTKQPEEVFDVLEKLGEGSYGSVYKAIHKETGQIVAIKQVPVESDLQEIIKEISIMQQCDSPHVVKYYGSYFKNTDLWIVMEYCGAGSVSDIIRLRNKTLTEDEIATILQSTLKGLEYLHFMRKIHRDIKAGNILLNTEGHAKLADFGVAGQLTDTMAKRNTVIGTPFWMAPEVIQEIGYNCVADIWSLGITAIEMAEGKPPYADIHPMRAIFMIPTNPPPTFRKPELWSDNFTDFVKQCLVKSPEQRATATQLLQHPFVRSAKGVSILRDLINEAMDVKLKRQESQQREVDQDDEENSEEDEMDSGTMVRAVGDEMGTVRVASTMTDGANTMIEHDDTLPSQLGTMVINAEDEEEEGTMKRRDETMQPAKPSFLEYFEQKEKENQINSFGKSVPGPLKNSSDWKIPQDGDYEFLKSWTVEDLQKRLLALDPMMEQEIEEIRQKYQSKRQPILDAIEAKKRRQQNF

Variants of: B1
Conditions: with stk4_human STK4, Q13043

Variant | effect of a mutation on the interaction
MSSGNAKIGYPAPNFKATAVMPDGQFKDISLSEYKGKYVVFFFYPLDFTFVSPTEIIAFSDRADEFKKLNCQVIGASVDSHFCHLAWINTPKKQGGLGPMNIPLISDPKRTIAQDYGVLKADEGISFRGLFIIDDKGILRQITINDLPVGRSVDEIIRLVQAFQFTDKHGEVCPAGWKPGSDTIKPDVNKSKEYFSKQK [C52S] | disrupting interaction
MSSGNAKIGYPAPNFKATAVMPDGQFKDISLSEYKGKYVVFFFYPLDFTFVCPTEIIAFSDRADEFKKLNCQVIGASVDSHFCHLAWINTPKKQGGLGPMNIPLISDPKRTIAQDYGVLKADEGISFRGLFIIDDKGILRQITINDLPVGRSVDEIIRLVQAFQFTDKHGEVSPAGWKPGSDTIKPDVNKSKEYFSKQK [C173S] | increasing interaction
MSSGNAKIGYPAPNFKATAVMPDGQFKDISLSEYKGKYVVFFFYPLDFTFVCPTEIIAFSDRADEFKKLNCQVIGASVDSHFSHLAWINTPKKQGGLGPMNIPLISDPKRTIAQDYGVLKADEGISFRGLFIIDDKGILRQITINDLPVGRSVDEIIRLVQAFQFTDKHGEVCPAGWKPGSDTIKPDVNKSKEYFSKQK [C83S] | decreasing interaction
